Patent US20090324538A1

Tests used:
[1] = target: heterotrimeric IL-15R (αβγc chains) on CTLL-2 cells (UniProt Q60819); test: cell-based or functional assay
[2] = target: IL-15Rβγc receptors on 32Dβ cells; test: cell-based or functional assay

Chain of UniProt Q60819 (Q60819 33-263, chain 1 of 3): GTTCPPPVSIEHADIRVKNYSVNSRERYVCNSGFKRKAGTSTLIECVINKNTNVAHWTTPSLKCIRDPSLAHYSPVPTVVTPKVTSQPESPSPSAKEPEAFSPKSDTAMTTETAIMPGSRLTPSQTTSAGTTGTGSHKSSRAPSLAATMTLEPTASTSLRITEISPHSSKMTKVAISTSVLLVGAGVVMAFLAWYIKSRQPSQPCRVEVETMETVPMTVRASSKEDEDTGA
Chain of UniProt Q60819 (P16297 27-539, chain 2 of 3, further chain): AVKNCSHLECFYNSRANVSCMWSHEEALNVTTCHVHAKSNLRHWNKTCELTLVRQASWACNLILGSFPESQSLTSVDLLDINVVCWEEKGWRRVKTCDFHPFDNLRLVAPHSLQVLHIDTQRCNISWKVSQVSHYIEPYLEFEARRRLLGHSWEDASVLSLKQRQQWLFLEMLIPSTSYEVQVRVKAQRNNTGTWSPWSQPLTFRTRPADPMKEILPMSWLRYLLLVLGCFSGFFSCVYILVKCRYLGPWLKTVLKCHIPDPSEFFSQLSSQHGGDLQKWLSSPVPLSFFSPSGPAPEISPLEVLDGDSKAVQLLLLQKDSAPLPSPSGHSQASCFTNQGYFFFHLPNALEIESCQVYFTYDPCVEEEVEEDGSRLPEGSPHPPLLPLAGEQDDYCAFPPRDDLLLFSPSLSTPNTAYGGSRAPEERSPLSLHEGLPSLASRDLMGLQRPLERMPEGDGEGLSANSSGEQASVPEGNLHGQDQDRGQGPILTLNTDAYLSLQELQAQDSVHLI
Chain of UniProt Q60819 (P34902 23-369, chain 3 of 3, further chain): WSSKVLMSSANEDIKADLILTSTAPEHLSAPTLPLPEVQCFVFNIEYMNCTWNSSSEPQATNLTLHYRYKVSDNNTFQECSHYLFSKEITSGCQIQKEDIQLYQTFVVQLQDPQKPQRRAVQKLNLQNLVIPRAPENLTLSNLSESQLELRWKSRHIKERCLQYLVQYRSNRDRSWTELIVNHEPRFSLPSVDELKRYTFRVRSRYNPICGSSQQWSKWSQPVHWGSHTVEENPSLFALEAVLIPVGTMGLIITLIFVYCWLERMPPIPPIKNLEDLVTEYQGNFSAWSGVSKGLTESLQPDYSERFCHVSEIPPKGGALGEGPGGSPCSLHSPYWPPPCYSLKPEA

Row | inhibition of c264scTCR/huIL15 stimulatory activity on CTLL-2 proliferation after complex formation [1] [fold] | proliferation of 32Dβ cells (WST-1), lowest concentration with biological activity [2] [pM] | Substance
1 | 4 | – | c264scTCR/huIL15+c264scTCR/huIL15RαΔE3 fusion protein complex (from UniProt Q13261 31-205)
2 | – | 80 | c264scTCR/huIL15N72D fusion protein (from UniProt P01857 99-113)
